Laboratory results: the supplement of paper PMC12764529
± gives the half width of the 95% confidence interval.

Experiments:
[1] = folding stability dG unfold from trypsin proteolysis; higher = more stable
Method in brief: (§1)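 How resistant each design was to proteolysis was captured as K50, inferred by Bayesian fitting of sequencing counts. Unfolding free energy was then derived relative to a sequence-predicted unfolded-state K50 and a shared folded-state K50, per protease or combined. Digestion used trypsin and chymotrypsin at 11 threefold-diluted concentrations plus a no-protease condition, on mini-proteins under 80 residues without cysteine in a PA-tagged cDNA display construct. Designs were kept only when AlphaFold2 dimer inter-PAE was above 15.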

[2] = folding stability dG unfold from chymotrypsin proteolysis; higher = more stable
Method in brief: as §1

[3] = folding stability dG unfold (combined trypsin and chymotrypsin); higher = more stable
Method in brief: as §1

Sequence | folding stability dG unfold [1] [kcal/mol] | folding stability dG unfold [2] [kcal/mol] | folding stability dG unfold [3] [kcal/mol]
SAGGSAGGSAMQPIRIKITLYNPDNGDTRTYTVEVPDPNMSLDAIAKQLPPGYRIKKVSIMSAGGSAGGSAG [r3_80_TrROS] | 3.38 ± 0.13 | 3.815 ± 0.033 | 3.68 ± 0.13
SAGGSKKTYIVDSPEEIAKLIESIPEEEYVFAIKGRPDGKPVVEIYSKENIEEAIKENPEIIIPVGSAGGSA [r2_351_TrMRF] | 0.287 ± 0.058 | 0.641 ± 0.068 | 0.479 ± 0.11
SAGGKTLVIKMKFKTKEEAEEAIKKLLEELGLPEGAKIEVTVERDENGELTVTITITVKDPEVLKALSAGGS [r8_85_TrROS_Hall] | 2 ± 0.11 | 2.66 ± 0.036 | 2.48 ± 0.076
SAGGSAGGSPNRKEIYIPISEEQFKENGMTPEEIADRIAEKFPHIPPNVRIEYPPNGWIKITVSAGGSAGGS [r12_50_TrROS] | 0.198 ± 0.11 | -0.208 ± 0.33 | 0.229 ± 0.21
SAGKARIVEYDEESGTITIEVDGKTIEIELAPGETAEITLEENEDGTLTLTITVNGKTLTLTIPLDDLKSAG [r5_500_TrROS_Hall] | 2.61 ± 0.18 | 3.47 ± 0.12 | 3.15 ± 0.13
SAGGSAGGSRIVRNPDGWYYVRIESPEKGQERYIWIPKGNAEEIADPFGIRNVSIYRPDEPIPSAGGSAGGS [r12_294_TrROS] | 0.427 ± 0.15 | 1.28 ± 0.34 | 0.937 ± 0.19
SAGGSAGGSAGGSMPEGTVLSVDPSTGLKVVYFPGENKLVFEEISPSNELVKRSEFPLSSAGGSAGGSAGGS [r4_192_JUSTAS] | -0.116 ± 0.14 | 0.436 ± 0.073 | 0.15 ± 0.13
SAGGSAGGSAGKIIFERDEDGYLRAIVYDPKTKEVYVRRFKVKDGKITEVETERINLKDLSAGGSAGGSAGG [r11_167_TrROS_Hall] | 2.06 ± 0.049 | 2.37 ± 0.078 | 2.21 ± 0.1
PKPLIEIERLPEGVLRARAINPVTGAPITITVPVEPGVDGYRLLAEVEAENVPPELAVKTAETVLALLEKKS [r1_403_TrMRF] | -0.115 ± 0.24 | -0.183 ± 0.33 | -0.0268 ± 0.26
MLTKVSTLTREDPSTGTTTTITVYKPPDGTLIVKVTTTTYSTTPDGTVTTTTSTTTVTLPPSVDVEKVFSSS [r1_243_JUSTAS] | 1.76 ± 0.068 | 3.01 ± 0.056 | 2.58 ± 0.12
SAGPPDWKPIAEFEYNIPMPPGETASEIENEILERIRPQGIKYVTIPVQYDPENGWIQVDVEIWVPPGASAG [r5_924_TrROS] | 0.898 ± 0.03 | 0.849 ± 0.16 | 0.891 ± 0.11
SAGGGPMPIDVEVLEVTPDSVRIRYPETGAVFTFDPNKEHEFTLPDGSRITVTFKPDGSVSATVTVPGSAGG [r13_352_JUSTAS] | 4.35 ± 0.3 | 4.13 ± 0.13 | 4.16 ± 0.14
SAGGSAGGMIKIKLKNGEVLYIDPKKPVLYFNKEKKIIPVKKDKIEKALKELEKKGFKIEKIDPSAGGSAGG [r6_337_TrMRF] | -0.249 ± 0.28 | -0.0347 ± 0.31 | 0.0657 ± 0.15
SAGGPPEGEKKKFRIDDVQPMPNPNGYFMVQIRYNDKPVSSIPIPPNNLDKLANDLPPGMEVEIYPFSAGGS [r8_41_TrROS] | 0.06 ± 0.11 | 0.511 ± 0.19 | 0.369 ± 0.21
SAGGSAGGSAGGSKLKIELNEDGTLRIVNEDTNEVYEIKLELPPPPPVETEVKYVSLEDLSAGGSAGGSAGG [r11_352_TrROS_Hall] | 0.604 ± 0.18 | 0.842 ± 0.26 | 0.47 ± 0.31
SAGGSAGGSAGGPDPEAYPFRYPDREFVLVRNPDEPDTYTILYPDDKVETVPAEDILPESAGGSAGGSAGGS [r10_556_TrMRF] | 0.473 ± 0.027 | -0.0442 ± 0.098 | 0.3 ± 0.06
SAGGMPLEHIAEITEVRTFPDGRKEIRLLVEDPEVAEEGHPELREEMAELLRRLFEEEGLEVRVVPGESAGG [r13_243_TrMRF] | 0.0715 ± 0.19 | 0.187 ± 0.18 | 0.2 ± 0.19
SAGGSAMLIRFVRDDKTVELRPFSSIEEARAFLEKGPVEEIEPREAPGGERVTFRAKLPDGEVLVESAGGSA [r15_632_JUSTAS] | -0.466 ± 0.23 | -0.743 ± 0.33 | -0.542 ± 0.15
SMEVEFDPENRTIVATVPEGVDPLAVAATLLAVVRELFDSGPVRLIVTNGDEVLEYLLGEDVLEVRPAGESA [r9_224_TrMRF] | 3.26 ± 0.11 | 4.21 ± 0.11 | 4.01 ± 0.1
SAGGMLLVEAPDGTTVEVTPEQAADLTPGAVVRHPSGDVWTYNPANDETVRIPWVSPAEVERAVAELSSAGG [r13_962_JUSTAS] | -0.0974 ± 0.038 | -0.361 ± 0.12 | -0.132 ± 0.043
SKVKVYIIKKDKVIPEIELDVSSVEEAVEKVLEYISKLPKNTPYLVRIEVEKYDPATGKKSYGTLLLPVGSA [r9_245_TrMRF] | 2.76 ± 0.048 | 4.53 ± 0.095 | 4.05 ± 0.1
